This is an account of results in US20250345445A1, “ANTIBODY-DRUG CONJUGATE AND USE THEREOF” (CSPC MEGALITH BIOPHARMACEUTICAL CO., LTD., priority 2021, published 2025).

Changes are numbered by the printed parent chain. Read-outs that look alike come from different tables or passages of the source. Marks after values point to notes of the source that are not given here. *1 amine or outer side, *2 acyl side, *3 side chain or, on linkers, in order; H or OH if unused. Where a SMILES comes first, the peptide text is derived from it. [ ]: non-standard residue; d: D form. The star is where a group is joined. Exatecan = CC[C@@]1(O)C(=O)OCc2c1cc1n(c2=O)Cc2c-1nc1cc(F)c(C)c3c1c2[C@@H](N*)CC3; Hexanoyl(6-maleimido) = O=C1C=CC(=O)N1CCCCCC(=O)*; X1 = C[C@@H](OCN[*:1])C(=O)[*:2]; X2 = O=C(COCCOCN[*:1])[*:2]

A short description of data set [1]: Assay 8: stability of linker-drug compounds. Type of data set: physicochemical. The note with it: high temperature, high humidity, illumination or 0.5% BSA-PBS; LC-MS/MS; Deruxtecan also studied. How it is done: Different linker-drug compounds such as Deruxtecan, JSSW-001, and ZW-002 were studied under high temperature (40° C., 60° C.), high humidity (25° C./75% RH and 25° C./92.5% RH), illumination (illuminance 4500 Lux, near-UV energy […]), or 0.5% BSA-PBS conditions. Samples were collected at different times after exposure to these conditions, and the concentration changes of the linker-drug compounds in the samples were detected using the LC-MS/MS method.

The subject of data set [2] is human colorectal cancer DiFi xenograft tumour. The data set is described as follows: Assay 16: efficacy of patritumab-ADC on DiFi xenograft tumour. Particulars: Table 29: 10 mg/kg i.v./qw*3w. The class given is in vivo, NU/NU mice. The source says:
The assay was terminated on day 28 after the administration.

In data set [3] the test system is human colon cancer SW620 xenograft tumour. The experiment in a line: Assay 15: efficacy of patritumab-ADC on SW620 xenograft tumour. The class given is in vivo, NU/NU mice. Particulars: 7 mg/kg i.v./single administration. The source says: The assay was terminated on day 26 after the administration. The inhibition effects of patritumab-DXD ADC (DAR=7.3) and patritumab-JSSW-001 ADC (DAR=7.36) on human colon cancer SW620 xenograft tumour in nude mice were compared.

Data set [4] concerns human lung adenocarcinoma PC9-GR (gefitinib-resistant cell) xenograft tumour. The experiment in a line: Assay 3: efficacy of patritumab-ADC on PC9-GR xenograft tumour. The class given is in vivo, NU/NU mice. The note with it: 3 mg/kg i.v./qw*4 w.
For data set [5] the following is noted: more active than the common chemotherapy drug irinotecan; cited from earlier work.
The conditions of data set [6]: Phase Ib, cited from earlier work.
The conditions of data set [7]: early data published by the company; cited from earlier work.
For data set [8], the target named is T1, EGFR on MDA-MB-468 cells (human, UniProt P00533 25-1210).
T1 construct: whole, on cells; also called epidermal growth factor receptor; HER1
The experiment in a line: flow cytometry on MDA-MB-468 cells, antibody diluted in PBS pH 6.0, FITC anti-human Fc. In general terms: A flow cytometer gives signals particle by particle.

Data set [9] concerns the target T1, EGFR on MDA-MB-468 cells. The data set is described as follows: flow cytometry on MDA-MB-468 cells, pH 7.4; ratio of EC50 to SWY2110.
Data set [10] has as its target T1, EGFR on MDA-MB-468 cells. The data set is described as follows: flow cytometry on MDA-MB-468 cells, antibody diluted in PBS pH 7.4, FITC anti-human Fc.
Data set [11] deals with T1, EGFR on MDA-MB-468 cells. The experiment in a line: flow cytometry on MDA-MB-468 cells, pH 6.0; ratio of EC50 to SWY2110.

One may read the EC50 as the midpoint of the concentration-response curve. A lower EC50 goes with a more potent agent.

Consider `CC[C@@]1(O)C(=O)OCc2c1cc1n(c2=O)Cc2c-1nc1cc(F)c(C)c3c1c2[C@@H](NC(=O)COCCOCNC(=O)CNC(=O)[C@H](Cc1ccccc1)NC(=O)CNC(=O)CNC(=O)CCCCCN1C(=O)C=CC1=O)CC3` [ZW-002, N—((S)-13-benzyl-1-(((1S,9S)-9-ethyl-5-fluoro-9-hydroxy-4-methyl-10,13-dioxo-2,3,9,10,13,15-hexahydro-1H,12H-benzo[de]pyrano[3′,4′:6,7]indolizino[1,2-b]quinolin-1-yl)amino)-1,9,12,15,18-pentaoxo-3,6-dioxa-8,11,14,17-tetraazanonadecan-19-yl)-6-(2,5-dioxo-2,5-dihydro-1H-pyrrol-1-yl)hexanamide] ({Hexanoyl(6-maleimido)}-GGFG[X2]-Exatecan), for which, in data set [1], the “stability of linker-drug compound” value is listed as “better stability”.

Consider “patritumab-DXD ADC (DAR = 7.3): patritumab antibody conjugated with commercially available Deruxtecan [reference compound]”, for which the figures for the “Tumour Volume” value in data set [2] (28 days after administration), in [3] (21 days after administration) and in [4] (28 days after administration) were 512.5 ± 470.8* mm^3, 461.3 ± 278.1*** mm^3 and 373.4 ± 102.8** mm^3, respectively. For the same molecule, the “TGI(%) Day 28” value in data set [2] came out at 54.0%; in data set [4], 59.5%. Also, in data set [3], the “TGI(%) Day 21” value is 73.2%.

Turning to `CC[C@@]1(O)C(=O)OCc2c1cc1n(c2=O)Cc2c-1nc1cc(F)c(C)c3c1c2[C@@H](NC(=O)[C@@H](C)OCNC(=O)CNC(=O)[C@H](Cc1ccccc1)NC(=O)CNC(=O)CNC(=O)CCCCCN1C(=O)C=CC1=O)CC3` [JSSW-001, N-((2R,10S)-10-benzyl-1-(((1S,9S)-9-ethyl-5-fluoro-9-hydroxy-4-methyl-10,13-dioxo-2,3,9,10,13,15-hexahydro-1H,12H-benzo[de]pyrano[3′,4′:6,7]indolizino[1,2-b]quinolin-1-yl)amino)-2-methyl-1,6,9,12,15-pentaoxo-3-oxa-5,8,11,14-tetraazahexadecan-16-yl)-6-(2,5-dioxo-2,5-dihydro-1H-pyrrol-1-yl)hexanamide] ({Hexanoyl(6-maleimido)}-GGFG[X1]-Exatecan), the “stability of linker-drug compound” value in data set [1] is given as “better stability”.

Regarding `CC[C@@]1(O)C(=O)OCc2c1cc1n(c2=O)Cc2c-1nc1cc(F)c(C)c3c1c2[C@@H](NC(=O)CO)CC3` [DXd], in data set [5], the “activity relative to irinotecan” value is listed as 10 times.

As to MRG003, the figures for the “objective response rate (ORR)” value in data set [6] (patients with nasopharyngeal carcinoma (4/9)) and in data set [6] (patients with non-small cell lung cancer (4/10)) were 44% and 40%, respectively.

B1: BA3011 (conjugate, chains of the INN, looked up)
VH: EVQLVQSGAEVKKPGATVKISCKVSGYSFWGATMNWIRQPPGKGLEWIGLIKPSNGGTSYNQKFKGRVTISADKSISTAYLQWSSLKASDTAMYYCAHGHYESYEAMDYWGQGTLVTVSS
VL: DIQMTQSPSSLSASVGDRVTITCKASQDVVSAVAWYQQKPGQAPRLLIYWQDTRHTGVPSRFSGSGSGTEFTLTISSLQPDDFATYYCQEHFSPPLTFGQGTKVEIK
modifications: vedotin (MMAE) payload
B1: the target-related toxicity result in [7] is “no obvious target-related toxicity”.

B2: BA3021 (conjugate, chains of the INN, looked up)
VH: EVQLVQSGAEVKKPGESLRISCKGSGYTFTEYTMHWVRQAPGQGLEWMGGINTNNGGTGYNQKFKGRVTISADKSISTAYLQWSSLKASDTAMYYCAHGSLYSYGNSYFDYWGQGTLVTVSS
VL: AIQLTQSPSSLSASVGDRVTITCSATSSVSYMHWYLQKPGQSPQLLIYGTSNLASGVPDRFSGSGSGTDFTLKISRVEAEDVGVYYCQQRSSYPFTFGQGTKVEIK
modifications: vedotin (MMAE) payload
As for B2, in data set [7], the target-related toxicity result is reported as “no obvious target-related toxicity”.

B3: EGFR antibody SWY2111 (antibody, human IgG1, kappa, V domains shown)
VH: QVQLQESGPGLVKPSETLSLTCTVSGFSLSDYDVHWVRQAPGKGLEWLGVIWSGGNTDYNTPFTSRLTISVDTSKNQFSLKLSSVTAADTAVYYCARALDDYDYEFAYWGQGTLVTVSS
VL: EIVLTQSPDFQSVTPKEKVTITCRASQSIGTNIHWYQQKPDQSPKLLIKYASESISGIPSRFSGSGSGTDFTLTINSLEAEDAATYYCQQNNEWPTSFGQGTKLEIKR
Take B3: the values for the EC50 with EGFR on MDA-MB-468 cells [8] and with EGFR on MDA-MB-468 cells [10] were 0.6 nM and 1.45 nM, respectively. In the data set with EGFR on MDA-MB-468 cells [9], the “fold decrease of affinity compared to SWY2110” value turned out to be 3 times. The “fold change of affinity compared to SWY2110” value with EGFR on MDA-MB-468 cells [11] was in the range of 1.2 to 1.3 times.

B4: EGFR antibody SWY2113 (antibody, human IgG1, kappa, V domains shown)
VH: B3 VH with D31H
VL: B3 VL
Regarding B4, the EC50 in the data set with EGFR on MDA-MB-468 cells [8] was determined as 3.39 nM; with EGFR on MDA-MB-468 cells [10] it was 4.76 nM. The “fold decrease of affinity compared to SWY2110” value was 3 to 9.7 times in the data set with EGFR on MDA-MB-468 cells [9] and 6.6 times with EGFR on MDA-MB-468 cells [11].

B5: EGFR antibody SWY2112 (antibody, human IgG1, kappa, V domains shown)
VH: B3 VH with D31E
VL: B3 VL
Turning to B5, the 50% effective concentration (EC50) with EGFR on MDA-MB-468 cells [8] was determined as 0.67 nM; in the data set with EGFR on MDA-MB-468 cells [10], 2.35 nM. In addition, in the data set with EGFR on MDA-MB-468 cells [11], the “fold change of affinity compared to SWY2110” value was in the range of 1.2 to 1.3 times.
